Positions count from the first letter of the chain named.
Experiments:
[1] = molecular target: full length human FGFR3b on BaF3 cells (BAF3/FGFR3b, ACL11991) (human, UniProt P22607 23-808); assay: cell-based or functional assay
[2] = molecular target: T1, human FGFR3b expressed with a C-terminal myc-myc-hexahistidine tag (hFGFR3b.mmH) (human); assay: SPR Biacore, mAb captured on anti-hFc, 25C
T1 construct: also called REGN3152; monomeric human FGFR3b
T1 chain: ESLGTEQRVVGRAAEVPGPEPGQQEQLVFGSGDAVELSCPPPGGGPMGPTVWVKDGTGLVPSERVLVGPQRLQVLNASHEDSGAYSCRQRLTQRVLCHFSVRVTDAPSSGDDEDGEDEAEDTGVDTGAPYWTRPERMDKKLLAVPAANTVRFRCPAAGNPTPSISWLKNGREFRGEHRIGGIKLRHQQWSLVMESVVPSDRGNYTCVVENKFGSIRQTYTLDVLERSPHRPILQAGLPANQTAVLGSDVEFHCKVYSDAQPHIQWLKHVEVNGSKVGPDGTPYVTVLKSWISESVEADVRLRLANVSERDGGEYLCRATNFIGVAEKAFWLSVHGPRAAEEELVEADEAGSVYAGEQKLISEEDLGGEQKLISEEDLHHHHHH
Protocol: (§1) The CM5 Biacore sensor surface was derivatized by amine coupling with a monoclonal mouse anti-human Fc monoclonal antibody (REGN2567). […] Antibody-reagent association was monitored for 5 minutes while dissociation in HBS-EP running buffer was monitored for 10 minutes. At the end of each cycle, the anti-FGFR3 antibody capture surface was regenerated using a 10 sec injection of 20 mM phosphoric acid. All binding kinetics experiments were performed at 25° C.
(§2) The specific SPR-Biacore sensorgrams were obtained by a double referencing procedure. The double referencing was performed by first subtracting the signal of each injection over a reference surface (anti-hFc) from the signal over the experimental surface (anti-hFc-captured anti-FGFR3 antibodies) thereby removing contributions from refractive index changes. In addition, running buffer injections were performed to allow subtraction of the signal changes resulting from the dissociation of captured antibodies from the coupled anti-hFc surface. Kinetic association (kₐ) and dissociation (kd) rate constants were determined by fitting the real-time sensorgrams to a 1:1 binding model using Scrubber v2.0c curve fitting software.

[3] = molecular target: T2, human FGFR3c expressed with a C-terminal myc-myc-hexahistidine tag (hFGFR3c.mmH) (human, UniProt P22607 23-375); assay: SPR Biacore, mAb captured on anti-hFc, 25C
T2 construct: also called REGN3155; monomeric human FGFR3c
Protocol: as §1, §2

hFGFR3c-hFc [4] = molecular target: T3, hFGFR3c-hFc (human, UniProt P22607 23-375); assay: competition ELISA: 7 nM hFGFR3c-hFc binding to plate-coated hFGF basic
T3 construct: range 23-375; Bought (R&D Systems); also called dimeric human FGFR3c; R&D Systems 766-FR-050; not shown: Fc portion of human IgG1, amino acids Pro100-Lys330
T3 sequence (looked up): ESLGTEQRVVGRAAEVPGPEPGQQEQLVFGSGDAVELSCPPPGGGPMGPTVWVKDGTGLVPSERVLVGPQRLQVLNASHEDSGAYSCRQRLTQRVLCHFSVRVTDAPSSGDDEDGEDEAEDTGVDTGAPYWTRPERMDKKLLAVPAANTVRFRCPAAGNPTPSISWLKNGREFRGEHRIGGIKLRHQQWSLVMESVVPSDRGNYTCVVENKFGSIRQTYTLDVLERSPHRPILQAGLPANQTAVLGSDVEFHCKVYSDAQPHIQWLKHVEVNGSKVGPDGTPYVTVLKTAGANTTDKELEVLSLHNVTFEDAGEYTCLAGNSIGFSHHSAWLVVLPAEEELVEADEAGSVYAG
Protocol: (§3) The fixed concentration of hFGFR3b or hFGFR3c proteins was selected to be near the concentration that generated 50% of the maximal binding (EC₅₀ value) to plate-adhered hFGF acidic or hFGF basic protein. […] The plates were then developed using TMB substrate solution (BD Biosciences) according to the manufacturer's recommended procedure and absorbance at 450 nm was measured on a Victor X5 plate reader.
(§4) Binding data were analyzed using a sigmoidal (four-parameter logistic) dose-response model using GraphPad Prism software. […] Percent blocking of FGFR3 antibody at a given concentration was calculated based on the formula shown below.
(§5) The ability of anti-FGFR3 antibodies to block human FGFR3b binding to hFGF acidic protein or hFGFR3c binding to hFGF acidic or hFGF basic proteins was evaluated using a sandwich ELISA-based blocking assay.

[5] = molecular target: T4, human FGFR3b expressed with a C-terminal murine Fc tag (hFGFR3b.mFc) (human); assay: competition ELISA: 4 nM hFGFR3b-mFc binding to plate-coated hFGF acidic
T4 construct: called dimeric; also called REGN3153; dimeric human FGFR3b
T4 chain: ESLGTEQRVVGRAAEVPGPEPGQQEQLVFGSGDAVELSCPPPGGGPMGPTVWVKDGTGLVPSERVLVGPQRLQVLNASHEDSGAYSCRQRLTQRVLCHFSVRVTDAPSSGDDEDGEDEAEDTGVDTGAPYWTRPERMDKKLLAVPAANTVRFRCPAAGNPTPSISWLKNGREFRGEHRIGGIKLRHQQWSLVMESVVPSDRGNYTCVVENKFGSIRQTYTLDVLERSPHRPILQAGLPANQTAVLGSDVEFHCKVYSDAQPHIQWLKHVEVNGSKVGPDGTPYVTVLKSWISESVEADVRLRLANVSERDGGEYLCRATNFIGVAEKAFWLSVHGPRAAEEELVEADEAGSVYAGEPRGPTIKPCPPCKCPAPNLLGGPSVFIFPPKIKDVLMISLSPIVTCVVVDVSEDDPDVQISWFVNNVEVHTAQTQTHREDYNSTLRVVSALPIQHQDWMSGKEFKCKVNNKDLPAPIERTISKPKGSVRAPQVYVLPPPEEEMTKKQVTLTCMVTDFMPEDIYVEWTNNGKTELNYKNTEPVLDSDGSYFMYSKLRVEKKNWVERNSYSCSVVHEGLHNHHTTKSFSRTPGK
Protocol: as §3, §4, §5

hFGFR3c-hFc [6] = molecular target: T3, hFGFR3c-hFc; assay: competition ELISA: 0.4 nM hFGFR3c-hFc binding to plate-coated hFGF acidic
Protocol: as §3, §4, §5

[7] = molecular target: T5, cynomolgus FGFR3b expressed with a C-terminal myc-myc-hexahistidine tag (mfFGFR3b.mmH) (cynomolgus); assay: SPR Biacore, mAb captured on anti-hFc, 25C
T5 construct: also called REGN3521; mf FGFR3b ecto (R357G)(E23-G377;R357G).mmH
T5 chain: T1 chain with A13V, P17S, G22S, T57A, R94L, R171K
Protocol: as §1, §2

[8] = molecular target: T6, murine FGFR3b expressed with a C-terminal myc-myc-hexahistidine tag (mFGFR3b.mmH) (murine); assay: SPR Biacore, mAb captured on anti-hFc, 25C
T6 construct: also called REGN3215; monomeric murine FGFR3b
T6 chain: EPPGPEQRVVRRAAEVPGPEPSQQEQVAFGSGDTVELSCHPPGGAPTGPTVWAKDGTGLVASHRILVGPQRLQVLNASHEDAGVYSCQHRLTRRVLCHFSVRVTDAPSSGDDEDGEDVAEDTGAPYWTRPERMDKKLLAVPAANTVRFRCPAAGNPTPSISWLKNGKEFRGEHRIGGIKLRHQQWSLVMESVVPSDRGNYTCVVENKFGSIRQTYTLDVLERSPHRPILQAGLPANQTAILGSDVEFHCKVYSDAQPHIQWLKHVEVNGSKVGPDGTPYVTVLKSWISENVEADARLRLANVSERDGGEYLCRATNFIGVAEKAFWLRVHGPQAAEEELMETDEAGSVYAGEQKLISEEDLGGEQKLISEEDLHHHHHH
Protocol: as §1, §2

[9] = molecular target: T4, human FGFR3b expressed with a …; assay: SPR Biacore, mAb captured on anti-hFc, 25C
Protocol: as §1, §2

[10] = molecular target: T6, murine FGFR3b expressed with a …; assay: SPR Biacore, mAb captured on anti-hFc, 25C; row marked NB
Protocol: as §1, §2

B1: REGN6331 (antibody, human IgG1, kappa, V domains shown)
VH: EVQLVESGGGLVQPGGSLRLSCAASGFTFTSTGISWVRQAPGKGLEWVGRIYPTSGSTNYADSVKGRFTISADTSKNTAYLQMNSLRAEDTAVYYCARTYGIYDLYVDYTEYVMDYWGQGTLVTVSS
VL: DIQMTQSPSSLSASVGDRVTITCRASQDVDTSLAWYKQKPGKAPKLLIYSASFLYSGVPSRFSGSGSGTDFTLTISSLQPEDFATYYCQQSTGHPQTFGQGTKVEIKR
notes: hIgG1 comparator; also called COMP6331; anti-FGFR3-hIgG1 comparator
[1]
  IC50 [M], BaF3 proliferation (CellTiter-Glo) with 1 nM FGF1 + 5 ug/ml heparin: 5.79e-11 M
  Max Blocking (%), BaF3 proliferation (CellTiter-Glo) with 1 nM FGF1 + 5 ug/ml heparin: 97.6%
[2]
  90 nM hFGFR3b.mmH Bind (RU): 58.4 RU
  Kd: 0.697 nM
  t½: 18.8 min
[3]
  90 nM hFGFR3c.mmH Bind (RU): 39.6 RU
  Kd: 2.42 nM
  t½: 8.77 min
hFGFR3c-hFc [4]
  IC50: 8.9 nM
[5]
  % Blocking at 200 nM mAb: 99%
  IC50: 1.5 nM
hFGFR3c-hFc [6]
  IC50: 0.1 nM

B2: H4H30117P2 (antibody, human IgG4 S228P, kappa, V domains shown)
VH: QVQLVQSGAEVKKPGSSVKVSCKASGDTFSNYVIGWVRQAPGQGLEWMGGIIPIFGTTNYAQQFQGRVTITTDESTSTAYMELSSLRSEDTAVYYCARDGNYGDYFDYWGQGTLVTVSS
VL: not shown
[2]
  90 nM hFGFR3b.mmH Bind (RU): 178 RU
  koff: 0.0063 s⁻¹
  kon: 656000 M⁻¹ s⁻¹
  t½: 1.8 min
[7]
  90 nM mfFGFR3b.mmH Bind (RU): 148 RU
  Kd: 15.8 nM
  koff: 0.0087 s⁻¹
  kon: 550000 M⁻¹ s⁻¹
  t½: 1.3 min
[8]
  binding result: no binding (tested: 90 nM)
[3]
  90 nM hFGFR3c.mmH Bind (RU): 166 RU
  koff: 0.00732 s⁻¹
  kon: 595000 M⁻¹ s⁻¹
  t½: 1.6 min
[9]
  30 nM hFGFR3b.mFc Bind (RU): 337 RU
  koff: 0.000133 s⁻¹
  kon: 787000 M⁻¹ s⁻¹
  t½: 87 min
[10]
  90 nM mFGFR3b.mmH Bind (RU): 0.9 RU

From US20240158515A1 (Regeneron, published 2024)
